According to PMC3858243:

System: 30S ribosomal subunit (with S1)
Test: filter binding
Settings: no initiator tRNA; Not given in the material for EMSA, SPR and filter binding (buffer with monovalent ions and MgCl2; RNA renatured 90°C 1 min, ice, then 25°C 30 min)

How did the binding signal (fold higher affinity than WT thrS) turn out when thrSSD mRNA was run?
The binding signal (fold higher affinity than WT thrS) was 5.

sodB mRNA was tested. Which Kd did it give?
The Kd was 1000 nM.

rpsOSD mRNA was tested. Which binding signal (fold higher affinity than WT rpsO) did it give?
The binding signal (fold higher affinity than WT rpsO) was 5.

Which Kd does the source give for rpsO mRNA here?
Its Kd is 1000 nM.

For thrS mRNA, which Kd is on record?
Its Kd is 1000 nM.
